In test [1] the target is Influenza virus A/Panama/2007/1999 (H3N2) (Influenza A virus A/Panama/2007/1999 (H3N2)). Briefly: ELISA on coated viral particles.
Test [2] has as its target Influenza virus A/California/7/2009pdm (H1N1pdm) (Influenza A virus A/California/7/2009pdm (H1N1pdm)). Briefly: ELISA on coated viral particles. In general terms: ELISA stands for enzyme-linked immunosorbent assay.
Test [3] deals with Influenza virus A/New Caledonia/20/1999 (H1N1) (Influenza A virus A/New Caledonia/20/1999 (H1N1)). Briefly: ELISA on coated viral particles.
Test [4] deals with Influenza virus A/Brisbane/59/2007 (H1N1) (Influenza A virus A/Brisbane/59/2007 (H1N1)). The test is described as follows: ELISA on coated viral particles.
The target of test [5] is Influenza virus A/Panama/2007/1999 (H3N2) (Influenza A virus A/Panama/2007/1999 (H3N2)). Briefly: cell-based or functional assay.
In test [6] the target is Influenza virus A/California/7/2009pdm (H1N1pdm) (Influenza A virus A/California/7/2009pdm (H1N1pdm)). The test is described as follows: cell-based or functional assay.
In test [7] the target is Influenza virus A/Suita/1/2009pdm (H1N1 2009 pandemic) (Influenza A virus A/Suita/1/2009pdm (H1N1pdm)). The test is described as follows: cell-based or functional assay.
The target in test [8] is Influenza virus A/Indonesia/5/2005/PR8-IBCDC-RG2 (H5N1) (Influenza A virus A/Indonesia/5/2005/PR8-IBCDC-RG2 (H5N1)). The test is described as follows: cell-based or functional assay.
The target in test [9] is Influenza virus A/Brisbane/59/2007 (H1N1) (Influenza A virus A/Brisbane/59/2007 (H1N1)). The test is described as follows: cell-based or functional assay.

B1: Group 42 representative clone F083-249, Fab-cp3-type antibody (Fab, V domains shown)
VH: QVQLVQSGSEVKKPGSSVKVSCKASGVTFSSYAISWVRQAPGQGLEWMGGISPMFGTTRYAQKFQGRVTITADESTRTGFMELSSLRSGDTAVYYCARSPTYYPGALDMWGQGTTVTVSS
VL: DVVMTQSPSLLSASVGDRVTITCRASQAIANFVSWFQQKPGEAPKSLIHAASTLQGGVPPRFSGSGYGAVFTLTITNLQPEDFATYFCQQYNSLPFTFGPGTDVEVR
As for B1, the Binding activity (absorbance at 492 nm) was determined as 1.15 in test [1], 2.38 in test [2], 3.13 in [3] and 3.02 in test [4].

B2: Group 51 representative clone F083-302, Fab-cp3-type antibody (Fab, V domains shown)
VH: QVQLVQSGAEVKKPGSSVKVSCEASGATFSSNAFSWVRQAPGQGPEWMGGIITMFRKAEYAQKFQGRVTITAGELGSTAYMEVRSLTFEDTAVYYCARHSGYHLIGYFDSWGQGTLVTVSS
VL: QSVLTQPPSVSAAPGQKVTISCSGTTSNIGNNYVSWYQQLPGAAPKLLIYDNNKRPSGIPDRFSGSKSDTSATLGITGLQTGDEADYYCGTWVSSLSVWVFGGGTKLTVLG
With B2, the Binding activity (absorbance at 492 nm) in test [1] was 0.23; in [2], 1.55; in test [3], 1.92; in [4] it was 2.

B3: Group 36 representative clone F082-243, Fab-PP-type antibody (Fab, V domains shown)
VH: QVQLQQSGAEVKKPGSSVKVSCKASGGIFRKNAISWVRQAPGQGLEWMGGIIAIFGTANYAQKFQGRVTITADDSTNTVYMELTSLRYEDTAVYYCARGPNYYENYFDFWGQGTLVTVSS
VL: EIVLTQSPSSLSASLRDTVTITCRTSQAITNYLAWYQQRPGKAPKLLIYAASVLQSGVPSRFSGSGSGTDFTLTISSLQPEDFATYYCQKYDSAPYTFGQGTKLEIK
On to B3, for which the Neutralizing activity (%) at 100 µg/ml was 7.5% in [5], 97.7% in [7], 50.6% in test [8] and 84.2% in test [9]. Further, the Neutralizing activity (%) at 250 µg/ml was -2.7% in test [5], 85.9% in test [7], 52.9% in [8] and 94.1% in test [9]. The HI activity in [6] and in test [9] was over 160 µg/mL throughout.

B4: Group 58 representative clone F083-307, Fab-cp3-type antibody (Fab, V domains shown)
VH: QVQLQQSGADVKKPGSSVKVSCKASGGTFGNYAISWVRQAPGQGLEWMGGITPIFGPANYAQRFQGRVTISADISTRTAYMELSSLRSEDTAIYYCARHPTYYFGSAMEYWGQGTLVTVSS
VL: SYELTQPPSVSVAPGQTATITCGGDRIGTGPVHWYQQRPGRAPVLIIYGSTHRPSGIPERFSGSKSVNTATLSISGVGVGDEADYYCQVWDTSTAQPIVFGGGTKLTVLS
As for B4, the Binding activity (absorbance at 492 nm) in test [1] came to 0.19; in [2], 2.37; in test [3] it was 3.3; in [4] it was 3.04.

B5: Group 63 representative clone F083-336, Fab-cp3-type antibody (Fab, V domains shown)
VH: QVQLQQSGAEVKQPGSSVKVSCKASGGIFRSNAISWVRQAPGQGLEWMGGIVALFGTANYAQKFQGRVTITADESTSTVYMELSSLRSEDTARYYCARNSGYHISGFYLDYWGQGTLVTVSS
VL: EIVLTQSPSSLSASVGDRVTITCRASQGISNYLAWYQQRPGKVPKLLIYTASTLLSGVPSRFSGGGSGTDYTLTISSLQPEDVATYYCQEYKSVPLTFGPGTKVEIK
In the case of B5, the Binding activity (absorbance at 492 nm) was found to be 0.15 in [1], 1.56 in [2], 1.61 in test [3] and 1.89 in test [4].

B6: Group 2 representative clone F082-220, Fab-PP-type antibody (Fab, V domains shown)
VH: QVQLVQSGAEVKKPGSSVKVSCKASGGIFRSNAVSWVRQAPGQGLEWMGGIIAIFGTPKYAQKFQGRVTITADESTSTVYMELSGLRYEDTAVYYCARGPNYYESYFDYWGQGTLVTVSS
VL: DIVMTQSPPSLSASVGDRVTITCRASQGISNYLAWYQQKPGKAPKLLIFGASTLHSGVSSRFSGSGSGPDFTLTISSLQPEDAATYYCQKYHSAPLTFGGGTKVEMK
In the case of B6, the Neutralizing activity (%) at 100 µg/ml in [5] was determined as 3.4%; in test [7], 85.3%; in test [8], 90.6%; in test [9] it was 100%. In addition, the Neutralizing activity (%) at 250 µg/ml in test [5] turned out to be 34.2%; in [7], 97.7%; in test [8] it was 97.1%; in [9], 100%. Besides, the HI activity in test [6] and in [9] was over 160 µg/mL each time.

B7: Group 57 representative clone F083-103, Fab-cp3-type antibody (Fab, V domains shown)
VH: QVQLQQSGADVKKAGSSVKVSCKASGRTFGNYAISWVRQAPGQGLEWMGGITPIFGAANYAQKFQGRVTISADLSTRMVYMDLSSLRSDDTAFYYCAGHPTYHYGSAMDYWGQGTLVTVSS
VL: QSVLTQPPSVSAAPGQKVTITCSGSSSNIGNNYVSWYQQLPGTAPKLLISEGSNRPSGIPDRFSGSKSGTSATLGITGLQTGDEATYYCATWDDSLSVVLFGGGTRLTVLS
In the case of B7, the Binding activity (absorbance at 492 nm) in test [1] is 0.16; in test [2] it was 1.82; in [3], 2.43; in test [4], 2.39.

B8: Group 80 representative clone F083-373, Fab-cp3-type antibody (Fab, V domains shown)
VH: QVQLVQSGADVKKPGSSVRVSCKASGRTFGNYAISWVRQAPGQGLEWMGGITPIFGAANYAQKFQGRVTISADLSTTMVYMDLSSLRSDDTAFYYCAGHPTYYYGSPMDYWGQGTLVTVSS
VL: EIVLTQSPSSLSASVGDRVTITCRASQSIATYLNWYQQKPGKAPNLLIYAASNLQSGVPSRFSGSGSGTDFTLTISSLQPEDFATYVCLQSYSATLTFGGGTKVEIK
For the molecule B8, the Binding activity (absorbance at 492 nm) in test [1] was 0.13; in [2] it was 0.17; in [3], 1.39; in test [4] it was 1.31.

B9: Group 59 representative clone F083-351, Fab-cp3-type antibody (Fab, V domains shown)
VH: QVQLVQSGADVKKAGSSVKVSCKASGRTFGNYAISWVRQAPGQGLEWMGGITPIFGAANYAQKFQGRVTISADLSTRMVYMDLSSLRSDDTAFYYCAGHPMYHYGSAMDYWGQGTLVTVSS
VL: QSVLTQPPSASGTPGQRVSISCFGSRSNVGSSSVNWYQQLPGRAPKLLIQRNDQRPSGVPDRFSGSKSGTSASLAISGLQSDDESTYYCAAWDDSVKSVVFGGGTQLTVLG
Turning to B9, the Binding activity (absorbance at 492 nm) in [1] worked out at 0.21; in test [2], 2.62; in test [3], 3.21; in test [4], 3.09.

B10: Group 62 representative clone F083-349, Fab-cp3-type antibody (Fab, V domains shown)
VH: QVQLVQSGAEVRKPGSSVKVSCKASGVIFIKFAISWVRQAPGQGLEWMGGIIPMFGTTNYAQKFQGRVTITADGSTNTVYMELSSLTSEDTAVYYCAKEEGYYYGSGPLDSWGQGTLVTVSS
VL: DIVMTQSPDFLSVSLGERVTINCKSSQTVLNRSNNKNYLAWYQKKPGQPPRLLLYWSSTRESGVPDRFSGSGSETDFALTITNLQAEDLAVYFCQQFYDMPVTFGGGTKLEIK
B10: the Binding activity (absorbance at 492 nm) in [1] stood at 0.15; in test [2] it was 2.79; in [3] it was 3.17; in [4] it was 2.93.

B11: Group 38 representative clone F082-338, Fab-cp3-type antibody (Fab, V domains shown)
VH: QVQLQESGAEVKKPGSSVKVSCKASGGPFRSHAISWVRQAAGQGLEWMGGITAVFGTANYAQKFQGRVTITADESTNIVSMELSSLRSEDTAIYYCARSLGYHTQYNGMDVWGQGTTVTVSS
VL: DVVMTQSPSSVSASVGDRVTITCRASQGISSWLAWYQQKPGKAPKLLIYAASSLQSGVPSRFSGSGSGTDFTLTISSLQPEDFATYYCQQANSFPITFGQGTRLEIK
For the molecule B11, the Binding activity (absorbance at 492 nm) in [1] turned out to be 0.13; in [2], 2.82; in [3], 3.01; in test [4] it was 2.93.

B12: Group 55 representative clone F083-305, Fab-cp3-type antibody (Fab, V domains shown)
VH: EVQLVESGAEVKKPGSSVKVSCKASGSIFSNYAISWVRQAPGQGLEWMGGIVPMFGTTRFAQKFQGRVTITADESRSTAYMELNNLISEDTAVYYCARAPLIYNWYFDLWGRGTLVTVSS
VL: EIVLTQSPSFVSASVGDRVSITCRASQGISSWLAWYQQKPGKAPRLLIYGASNLQSGVPSRFSGSGSGTDYTLTINSLQPEDFATYYCQQARTFPVTFGQGTKLEIK
As for B12, the Binding activity (absorbance at 492 nm) in test [1] came out at 0.15; in test [2], 1.29; in test [3], 3.07; in test [4], 2.88.

B13: Group 56 representative clone F083-318, Fab-cp3-type antibody (Fab, V domains shown)
VH: EVQLVQSGAEVKKPGSSVKVSCQASGSIFSNYAINWVRQAPGQGLEWMGGIVPIFGTTRFAQKFQGRLTITADEPRSTAYMELNNLISEDTAVYYCARAPLIYNWYYDLWGRGTLVTVSS
VL: EIVLTQSPSSLSASVGDRVTITCRASQGISNYLAWYQQKPGKVPKLLIYAASTLQSGVPSRFSGSGSGTDFTLTISSLQPEDVATYYCQKYNSAPHTFGPGTKVDIK
Turning to B13, the Binding activity (absorbance at 492 nm) in test [1] was 0.16; in test [2], 0.71; in test [3], 3.01; in [4], 2.85.

The values are drawn from patent publication US20160200799A1.
